Test results reported in patent US20250163127A1.

T1: CD226 (human) (UniProt Q15762)
T1 sequence: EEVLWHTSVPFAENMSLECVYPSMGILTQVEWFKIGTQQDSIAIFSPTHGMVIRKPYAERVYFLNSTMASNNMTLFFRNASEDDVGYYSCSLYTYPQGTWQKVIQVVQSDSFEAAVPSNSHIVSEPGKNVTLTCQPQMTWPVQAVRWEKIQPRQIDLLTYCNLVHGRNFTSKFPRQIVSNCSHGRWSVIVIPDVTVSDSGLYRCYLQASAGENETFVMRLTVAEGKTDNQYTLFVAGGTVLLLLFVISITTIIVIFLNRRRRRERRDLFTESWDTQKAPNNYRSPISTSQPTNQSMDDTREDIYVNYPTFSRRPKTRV

T2: CD96 (human) (UniProt P40200)
T2 sequence: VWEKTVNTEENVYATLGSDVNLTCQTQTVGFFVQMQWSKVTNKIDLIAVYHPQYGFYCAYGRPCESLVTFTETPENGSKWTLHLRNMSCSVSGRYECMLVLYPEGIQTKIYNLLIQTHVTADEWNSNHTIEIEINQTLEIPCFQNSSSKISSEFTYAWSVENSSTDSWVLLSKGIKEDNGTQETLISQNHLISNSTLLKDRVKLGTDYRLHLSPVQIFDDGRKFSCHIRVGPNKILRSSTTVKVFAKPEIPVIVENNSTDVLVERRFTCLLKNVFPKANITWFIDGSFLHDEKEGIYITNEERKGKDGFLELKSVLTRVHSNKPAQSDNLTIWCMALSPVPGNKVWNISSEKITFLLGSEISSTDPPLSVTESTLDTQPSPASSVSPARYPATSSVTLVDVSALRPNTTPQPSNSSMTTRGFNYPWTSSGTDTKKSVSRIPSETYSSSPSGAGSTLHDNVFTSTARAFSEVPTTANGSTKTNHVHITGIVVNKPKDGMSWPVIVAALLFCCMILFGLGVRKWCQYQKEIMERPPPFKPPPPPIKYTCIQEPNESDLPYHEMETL


Key:
[1] = molecular target: PD-L1 (human); assay: flow cytometry on HEK293 cells transfected with PD-L1
Chain of PD-L1 (human) (chain, as listed by the source): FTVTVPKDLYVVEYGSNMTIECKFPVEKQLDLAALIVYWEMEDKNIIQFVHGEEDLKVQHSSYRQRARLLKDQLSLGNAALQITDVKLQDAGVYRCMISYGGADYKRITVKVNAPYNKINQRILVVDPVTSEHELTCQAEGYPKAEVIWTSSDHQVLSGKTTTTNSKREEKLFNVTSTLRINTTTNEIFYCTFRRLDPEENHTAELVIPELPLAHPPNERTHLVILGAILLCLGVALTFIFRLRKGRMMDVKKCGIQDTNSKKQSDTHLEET

[2] = molecular target: CTLA-4 (human); assay: flow cytometry on HEK293 cells transfected with CTLA4
Chain of CTLA-4 (human) (chain, as listed by the source): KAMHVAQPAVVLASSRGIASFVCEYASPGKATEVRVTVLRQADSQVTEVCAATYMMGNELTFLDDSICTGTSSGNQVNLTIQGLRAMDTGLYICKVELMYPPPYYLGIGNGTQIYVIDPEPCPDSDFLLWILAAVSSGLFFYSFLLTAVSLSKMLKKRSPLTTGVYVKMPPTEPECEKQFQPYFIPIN

[3] = molecular target: T1, CD226 (human); assay: flow cytometry, transfected HEK293 cells
[4] = molecular target: T2, CD96 (human); assay: flow cytometry, transfected HEK293 cells

Row | MFI at 22.2 nM [1] [MFI] | MFI at 66.6 nM [2] [MFI] | MFI at 100 nM [3] | MFI at 100 nM [4] | Binder
1 | 13800 | 150000 | – | – | Variant CD80 E35D/A71D Fc fusion (Table E14B) (Fc fusion) VIHVTKEVKEVATLSCGHNVSVEELAQTRIYWQKDKKMVLTMMSGDMNIWPEYKNRTIFDITNNLSIVILDLRPSDEGTYECVVLKYEKDAFKREHLAEVT
2 | – | – | 6470 | 1700 | variant CD155 IgV-Fc, S42L, S52Q, L104E (Fc fusion) WPPPGTGDVVVQAPTQVPGFLGDSVTLPCYLQVPNMEVTHVLQLTWARHGEQGSMAVFHQTQGPSYSESKRLEFVAARLGAELRNASLRMFGLRVEDEGNYTCEFVTFPQGSRSVDIWLRVL
